According to the RNAGym collection of RNA variant scans (doi:10.1021/acssynbio.7b00057):

B1: Pistol ribozyme (parent)
chain: GGGUCGUUGUUCCAUAAUCGCGUGGAUAUGGCACGCAAGUUUCUACCGGGCACCGUAAAUGUCCGACUGGAGCCGUUCGGGCGGCUAUAAACAGACCUCAGGCCCGAAGCGUGGCGGCACCUGCCGCCGGUGGUAAAAAAGAUCGGAAGAGCACACGUCU

Variants of: B1
Test: aptazyme ON/OFF ratio, guanine; higher = stronger switching; co-transcriptional cleavage with and without guanine

Variant	aptazyme ON/OFF ratio
U7A U8C G9U U11G C12U C13G	1.14
U7A U8C G9U U11G C12U C13A	1.22
U7A U8C G9U U11G C12U C13U	1.28
U7A U8C U10C U11G C13A	1.2
U7A U8C U10C U11G C13U	1.23
U7A U8C U10C U11G C13G	1.24
U7A U8C U10C C13U	2.97
U7A U8C U10C C13A	1.08
U7A U8C U10C C13G	1.32
U7A U8C U10A U11C C12G	1.1
U7A U8C U10A U11C C12A	1.09
U7A U8C U10A U11C C12U	1.03
U7A U8C U10G C12U C13G	1.14
U7A U8C U10G C12U C13U	1.34
U7A U8C U10G C12U C13A	1.21
U7A U8C U10G U11A	1.14
U7A U8C U10A U11G C12U C13U	1.26
U7A U8C U10A U11G C12U C13A	1.28
U7A U8C U10A U11G C12U C13G	1.16
U7A U8C U10C U11C C13G	1.17
U7A U8C U10C U11C C13U	1.01
U7A U8C U10C U11C C13A	1.03
U7A U8C U10A U11A C13A	1.2
U7A U8C U10A U11A C13U	1.12

Variant	aptazyme ON/OFF ratio
U7A U8C U10A U11A C13G	1.29
U7A U8C U10C U11C	1.04
U7A U8C U10C U11G	1.26
U7A U8C U10C U11A	1.16
U7A U8C U10C U11A C12G C13G	1.22
U7A U8C U10C U11A C12G C13A	1.17
U7A U8C U10C U11A C12G C13U	1.21
U7A U8C U10C C12G	1.46
U7A U8C U10C C12U	3.63
U7A U8C U10C C12A	1.32
U7A U8C U10G U11A C13U	1.09
U7A U8C U10G U11A C13A	1.12
U7A U8C U10G U11A C13G	1.2
U7A U8C U10A U11C C12G C13U	1.13
U7A U8C U10A U11C C12G C13G	1.27
U7A U8C U10A U11C C12G C13A	1.08
U7A U8C U10C U11C C12U C13U	1.07
U7A U8C U10C U11C C12U C13A	1.06
U7A U8C U10C U11C C12U C13G	1.23
U7A U8C U10A U11C C13U	1.02
U7A U8C U10A U11C C13G	1.05
U7A U8C U10A U11C C13A	1.05
U7A U8C U10G U11A C12G C13G	1.14
U7A U8C U10G U11A C12G C13U	1.2

Variant	aptazyme ON/OFF ratio
U7A U8C U10G U11A C12G C13A	1.18
U7A U8C U10C U11A C12U C13A	1.21
U7A U8C U10C U11A C12U C13G	1.19
U7A U8C U10C U11A C12U C13U	1.27
U7A U8C G9U U11G C12U	1.35
U7A U8C U10C U11G C12U	1.3
U7A U8C U10C U11G C12G	1.25
U7A U8C U10C U11G C12A	1.2
U7A U8C U10G C12A C13G	1.05
U7A U8C U10G C12A C13U	1.15
U7A U8C U10G C12A C13A	1.13
U7A U8C U10A C12A	1.24
U7A U8C U10A C12G	1.18
U7A U8C U10A C12U	1.1
U7A U8C U10A C12U C13G	1.08
U7A U8C U10A C12U C13U	1.22
U7A U8C U10A C12U C13A	1.11
U7A U8C U10A U11G C12A C13U	1.22
U7A U8C U10A U11G C12A C13A	1.17
U7A U8C U10A U11G C12A C13G	1.15
U7A U8C U10A C13G	1.01
U7A U8C U10A C13U	1.05
U7A U8C U10A C13A	1.06
U7A U8C U10C U11G C12U C13G	1.16

Variant	aptazyme ON/OFF ratio
U7A U8C U10C U11G C12U C13A	1.28
U7A U8C U10C U11G C12U C13U	1.28
U7A U8C U10G C12G C13G	1.11
U7A U8C U10G C12G C13U	1.19
U7A U8C U10G C12G C13A	1.09
U7A U8C U10A U11C C12U C13A	1.07
U7A U8C U10A U11C C12U C13U	1.05
U7A U8C U10A U11C C12U C13G	1.07
U7A U8C U10C C12U C13G	1.26
U7A U8C U10C C12U C13U	1.38
U7A U8C U10C C12U C13A	1.17
U7A U8C U10C U11C C12G C13A	1.12
U7A U8C U10C U11C C12G C13G	1.1
U7A U8C U10C U11C C12G C13U	1.09
U7A U8C U10A U11A C12G	1.23
U7A U8C U10A U11A C12U	1.18
U7A U8C U10A U11A C12A	1.17
U7A U8C U10G C13U	1.31
U7A U8C U10G C13G	1.24
U7A U8C U10G C13A	1.4
U7A U8C U10C U11A C13G	1.16
U7A U8C U10C U11A C13U	1.17
U7A U8C U10C U11A C13A	1.15
U7A U8C U10G U11A C12U C13G	1.14

Variant	aptazyme ON/OFF ratio
U7A U8C U10G U11A C12U C13U	1.2
U7A U8C U10G U11A C12U C13A	1.2
U7A U8C U10A U11G C12A	1.1
U7A U8C U10A U11G C12G	1.32
U7A U8C U10A U11G C12U	1.27
U7A U8C U10G U11A C12A C13U	1.32
U7A U8C U10G U11A C12A C13G	1.15
U7A U8C U10G U11A C12A C13A	1.28
U7A U8C U10A U11G C12G C13U	1.45
U7A U8C U10A U11G C12G C13G	1.28
U7A U8C U10A U11G C12G C13A	1.36
U7A U8C U10C U11G C12G C13G	1.24
U7A U8C U10C U11G C12G C13A	1.26
U7A U8C U10C U11G C12G C13U	1.14
U7A U8C U10G C12A	1.21
U7A U8C U10G C12U	1.27
U7A U8C U10G C12G	1.12
U7A U8C U10C	2.24
U7A U8C U10G	1.47
U7A U8C U10A	1.06
U7A U8C U10A U11A C12G C13U	1.28
U7A U8C U10A U11A C12G C13A	1.11
U7A U8C U10A U11A C12G C13G	1.31
U7A U8C U10C U11C C12G	1.19

Variant	aptazyme ON/OFF ratio
U7A U8C U10C U11C C12U	1.04
U7A U8C U10C U11C C12A	1.14
U7A U8C U10C C12A C13U	1.26
U7A U8C U10C C12A C13G	1.15
U7A U8C U10C C12A C13A	1.25
U7A U8C U10A C12G C13A	1.09
U7A U8C U10A C12G C13G	1.23
U7A U8C U10A C12G C13U	1.26
U7A U8C U10G U11A C12U	1.11
U7A U8C U10G U11A C12G	1.37
U7A U8C U10G U11A C12A	1.42
U7A U8C U10C U11A C12A	1.29
U7A U8C U10C U11A C12U	1.19
U7A U8C U10C U11A C12G	1.28
U7A U8C G9U U11G C13U	1.27
U7A U8C G9U U11G C13G	1.12
U7A U8C G9U U11G C13A	1.2
U7A U8C U10A U11A C12A C13G	1.15
U7A U8C U10A U11A C12A C13U	1.17
U7A U8C U10A U11A C12A C13A	1.07
U7A U8C U10C C12G C13U	1.41
U7A U8C U10C C12G C13A	1.34
U7A U8C U10C C12G C13G	1.22
U7A U8C U10C U11C C12A C13A	1.09

Variant	aptazyme ON/OFF ratio
U7A U8C U10C U11C C12A C13G	1.16
U7A U8C U10C U11C C12A C13U	1.16
U7A U8C U10C U11G C12A C13U	1.18
U7A U8C U10C U11G C12A C13G	1.28
U7A U8C U10C U11G C12A C13A	1.33
U7A U8C U10A C12A C13A	1.22
U7A U8C U10A C12A C13U	1.22
U7A U8C U10A C12A C13G	1.15
U7A U8C U10A U11G C13U	1.31
U7A U8C U10A U11G C13A	1.26
U7A U8C U10A U11G C13G	1.24
U7A U8C U10A U11A C12U C13U	1.17
U7A U8C U10A U11A C12U C13G	1.33
U7A U8C U10A U11A C12U C13A	1.18
U7A U8C U10A U11C C12A C13U	1.08
U7A U8C U10A U11C C12A C13A	1.07
U7A U8C U10A U11C C12A C13G	1.17
U7A U8C U10C U11A C12A C13G	1.15
U7A U8C U10C U11A C12A C13A	1.18
U7A U8C U10C U11A C12A C13U	1.21
U7A U8C U10A U11G	1.17
U7A U8C U10A U11C	1.03
U7A U8C U10A U11A	1.18
